According to US20050256044A1:

Columns and labels:
[1] = target: human wild type, full-length GIPF polypeptide (GIPFwt) (human) (UniProt Q2MKA7); assay: cell-based or functional assay
[2] = target: V5His6-tagged polypeptide of human GIPF (GIPFt) (human); assay: cell-based or functional assay
Chain of V5His6-tagged polypeptide of human GIPF (GIPFt) (human) (chain, as listed by the source limits assumed): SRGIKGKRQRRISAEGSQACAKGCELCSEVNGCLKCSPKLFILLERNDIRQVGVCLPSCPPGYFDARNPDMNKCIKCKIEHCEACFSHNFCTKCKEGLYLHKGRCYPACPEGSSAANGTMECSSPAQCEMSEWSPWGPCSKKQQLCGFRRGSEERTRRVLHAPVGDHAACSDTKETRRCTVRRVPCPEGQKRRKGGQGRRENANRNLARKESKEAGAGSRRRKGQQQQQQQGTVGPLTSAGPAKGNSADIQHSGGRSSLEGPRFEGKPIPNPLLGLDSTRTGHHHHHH

Chain of UniProt Q2MKA7 (Q2MKA7 21-263 limits assumed): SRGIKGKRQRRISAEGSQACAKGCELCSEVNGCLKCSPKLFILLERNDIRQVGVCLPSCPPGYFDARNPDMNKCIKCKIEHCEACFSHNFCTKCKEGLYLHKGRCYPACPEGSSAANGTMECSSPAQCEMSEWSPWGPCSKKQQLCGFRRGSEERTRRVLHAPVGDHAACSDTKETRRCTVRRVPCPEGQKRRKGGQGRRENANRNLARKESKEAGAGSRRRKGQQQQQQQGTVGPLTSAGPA

N-terminal sequence analysis of protein from HEK293 cells; ratio of mature to dominant mature forms (ratio mature:dominant mature) [1]: 0.5
N-terminal sequence analysis of protein from HEK293 cells; ratio of mature to dominant mature forms (ratio mature:dominant mature) [2]: 0.5
Substance: furin protease (from UniProt P09958 108-794) (enzyme)
